# ± gives the uncertainty stated by the source.
# B1: Tudor domain-containing protein 3, residues 554 to 611; numbered along this chain, Q9H7E2 (parent)
# chain: KMWKPGDECFALYWEDNKFYRAEVEALHSSGMTAVVKFIDYGNYEEVLLSNIKPIQTE
# Variants of: B1
# Experiment: abundance fitness (aPCA) (normalised: wild type 0, dead -1); higher = more abundant; growth selection in yeast, the domain comes from the species named
# Conditions: Homo sapiens
row,Variant,abundance fitness
1,L12S,-0.725 ± 0.088
2,L12A,-0.525 ± 0.083
3,L12G,-0.782 ± 0.086
4,L12K,0.01 ± 0.12
5,L12D,-0.891 ± 0.19
6,V36R,-0.88 ± 0.1
7,V36G,-0.833 ± 0.076
8,V36H,-0.838 ± 0.32
9,V36D,-0.996 ± 0.15
10,V36S,-0.913 ± 0.1
11,V36Q,-0.73 ± 0.14
12,H28L,-0.087 ± 0.062
13,H28N,-0.006 ± 0.094
14,H28E,-0.159 ± 0.082
15,H28R,-0.183 ± 0.054
16,H28G,0.034 ± 0.055
17,H28M,-0.118 ± 0.076
18,H28P,-0.001 ± 0.1
19,P54H,-0.181 ± 0.12
20,P54L,-0.36 ± 0.065
21,P54A,-0.162 ± 0.07

row,Variant,abundance fitness
1,P54W,-0.767 ± 0.085
2,P54G,-0.332 ± 0.057
3,P54I,-0.5 ± 0.12
4,P54E,-0.006 ± 0.11
5,A22R,-0.756 ± 0.076
6,A22E,-1.04 ± 0.13
7,A22Q,-0.955 ± 0.15
8,A22F,-0.977 ± 0.25
9,A22G,-0.351 ± 0.06
10,A22D,-0.93 ± 0.13
11,A22W,-0.95 ± 0.12
12,A22M,-0.908 ± 0.16
13,A22H,-0.936 ± 0.21
14,N43M,-0.108 ± 0.071
15,N43D,-0.259 ± 0.14
16,N43T,0.073 ± 0.078
17,N43Y,0.003 ± 0.15
18,W3M,-0.079 ± 0.11
19,W3A,-0.634 ± 0.09
20,W3F,0.031 ± 0.12
21,W3T,-0.615 ± 0.1

row,Variant,abundance fitness
1,W3K,-1.01 ± 0.3
2,W3E,-0.866 ± 0.17
3,W3P,-0.314 ± 0.11
4,W3H,-0.842 ± 0.21
5,W3R,-1.01 ± 0.11
6,W3V,-0.053 ± 0.068
7,Y44T,0.039 ± 0.081
8,Y44V,0.103 ± 0.07
9,Y44L,-0.05 ± 0.077
10,Y44Q,-0.206 ± 0.12
11,Y44F,0.006 ± 0.13
12,Y44E,0.012 ± 0.092
13,I39A,-0.036 ± 0.063
14,I39T,-0.034 ± 0.083
15,I39N,-0.255 ± 0.12
16,I39R,-0.097 ± 0.056
17,I39W,-0.361 ± 0.082
18,I39C,-0.081 ± 0.082
19,I39L,-0.05 ± 0.066
20,D16P,-0.602 ± 0.12
21,D16F,-0.76 ± 0.25

row,Variant,abundance fitness
1,D16K,-0.366 ± 0.11
2,D16T,-0.377 ± 0.1
3,D16R,-0.308 ± 0.057
4,D16H,-0.116 ± 0.14
5,D16M,-0.754 ± 0.11
6,D16G,-0.89 ± 0.077
7,K18H,-0.179 ± 0.12
8,K18M,-0.033 ± 0.084
9,K18E,-0.179 ± 0.087
10,K18R,-0.095 ± 0.056
11,K18N,-0.228 ± 0.11
12,Y20N,-0.68 ± 0.18
13,Y20D,-1.01 ± 0.17
14,Y20K,0.072 ± 0.091
15,Y20C,-0.321 ± 0.12
16,A34P,-1.04 ± 0.28
17,A34T,-0.948 ± 0.17
18,A34G,-0.413 ± 0.054
19,A34C,-0.072 ± 0.091
20,A34R,-0.85 ± 0.088

# Source: the Human Domainome abundance scans (Beltran et al. 2025)
